Experimental findings from US20240390486A1 are described below.

In general, EC50 refers to the concentration at which the effect is half-maximal. A lower EC50 goes with higher potency in that assay.

Residue numbers refer to the chain shown, from its start.

Sequences and labels used below:
B1: human IgE mAb 15C2 (antibody, from a related filing, V domains shown)
VH: QVQLVQSESELKKPGASVKISCKASGYDLTKYAMNWVRQAPGQGLEWMGWINTNTAKPTYAQGFTGRFVFSLDTSVRTIYLEISNLKAEDTAIYYCSRDGSGASWGQGTLVTVSS
VL: DIQMTQSPSTLSASVGDRVTITCRASQNIGRWLAWHQQKPGKAPKVLITKASNLESGVPSRFTGSGSGTDFTLTITSLQPDDFATYYCQQYTTYSGTFGQGTRVEIK
B2: human IgE mAb 26A5 (antibody, from a related filing, V domains shown)
VH: QVQLVQSGSELRKPGASVKVSCKASGYTFTKYGMNWVRQAPGQGLEWMGWINTNTAKPTYAQDFTGRFVFSLDTSVNTAYLEISGLKAEDTAVYYCATDGSEGSWGQGTLVTVSS
VL: B1 VL with N28S, R31T, K42T, T49Y, E55K, T63S, T76S, F83V, T92N
B3: human IgE mAb 8F3 (antibody, from a related filing, V domains shown)
VH: QLQLQESGPGLVKPSETLSLTCTVSDASIDTPSYFWSWIRQPPGKGLEWIGSIYYTGNKYSNPSLKSRVTMSVDTPKRQFSLRLSSVTAADTAVYYCARYVDYVWLRAFDIWGQGTRVTVSS
VL: EIVLTQSPATLSLSPGERATLSCRASPSAGRFLAWYQQRPGQAPRLLIYDASKRATDTPARFSGSGSGTDFNLTIASLEPEDFAVYYCQHRSNWPLTFGGGTKVEIK
B4: human IgE mAb 1A8 (antibody, from a related filing, V domains shown)
VH: QLQLQESGPGLVKPSETLSLTCSVSDDSISTPSYFWTWIRQPPGKGLEWIASIYYTGTTYYNPSLKSRVTLSVDTPKRQFFLRLSSVTAADTAVYYCARYLDYVWLRAFDVWGQGAMVTVSS
VL: B3 VL with A29V, R39K, K53Q, T58I, G64A, N72T, A76D, V85I, L96V, K103R
B5: human IgE mAb 20M10 (antibody, from a related filing, V domains shown)
VH: EVQLVESGGGLVKPGGSLRLSCTVSGFTFNMHSMNWVRQAPGKGLEWVSFISSTSTYIYYPDSVKGRFTVSRDNSKNSLYLQMTSLRAEDTAVYYCVRRGRGGAARALDNWGQGTLVTVSS
VL: SYVLPQTPSLSVAPGQTATISCGGNNTGSKSVHWYQQKPGQAPLLVVYDNSDRPSGIPERFSGSNSGNTATLTLSRVEAEDEADYYCQVWDSTIDHVIFGGGTKLTVL
B6: human IgE mAb 21C10 (antibody, from a related filing, V domains shown)
VH: EVQLVESGGGLVKPGGSLRLSCAASGFILSRSSMSWVRQAPGKGLEWVSYISSTSSHIYYADSLKGRFTISRDNTENSVYLQMSSLRAEDTGVYYCARKTNGAWFLDLWGRGTLVTVSS
VL: QSVLTQPPSVSGAPGQRVTISCTGSSSNIGAGSDVHWYQQFPGSAPHVLIYGNNQRPSGVPDRFSASKSGTSASLAITGLQADDEADYYCQSYDYDLSGSWVFGGGTKLTVL

The target of this test is T1, peanut (Arachis hypogaea) allergen Ara h 6 (Arachis hypogaea) (UniProt Q647G9).
T1 sequence: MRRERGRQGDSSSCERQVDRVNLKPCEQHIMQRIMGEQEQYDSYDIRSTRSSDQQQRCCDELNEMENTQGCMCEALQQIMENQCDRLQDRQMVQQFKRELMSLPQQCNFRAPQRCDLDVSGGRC
In words: EC50 of IgE mAb on allergen, Table 1; method not stated.
B1 yielded a half-maximal effective concentration (EC50) of 31.5 ng/mL.

Take B2: the 50% effective concentration (EC50) is 10.1 ng/mL. This EC50 is about 3.1-fold lower than that of the molecule before.

In turn, B3 showed an EC50 of 3.8 ng/mL.

B4: the half-maximal effective concentration (EC50) is 5 ng/mL.

In turn, B5 showed a 50% effective concentration (EC50) of 5.3 ng/mL.

B6 returned an EC50 of 3.2 ng/mL.
